According to publication PMC9249340 (FEBS Open Bio, 2022):
Where a chain is given by its changes, count along the chain named. Numbers in names are those of the source.

B1: GDAP1Δ303‐358 R120W (domain or fragment, human, UniProt Q8TB36 1-302, looked up)
chain: MAERQEEQRGSPPLRAEGKADAEVKLILYHWTHSFSSQKVRLVIAEKALKCEEHDVSLPLSEHNEPWFMRLNSTGEVPVLIHGENIICEATQIIDYLEQTFLDERTPRLMPDKESMYYPWVQHYRELLDSLPMDAYTHGCILHPELTVDSMIPAYATTRIRSQIGNTESELKKLAEENPDLQEAYIAKQKRLKSKLLDHDNVKYLKKILDELEKVLDQVETELQRRNEETPEEGQQPWLCGESFTLADVSLAVTLHRLKFLGFARRNWGNGKRPNLETYYERVLKRKTFNKVLGHVNNILIS
notes: GDAP1, human; printed as GDAP1Δ303-358 (residues 303-358 deleted) with the CMT2K-linked mutation R120W; Disease mutation that occurs in patients; also called R120W GDAP1; GDAP1∆303‐358 R120W; source: E. coli BL21(DE3), purified (Ni-NTA, TEV cleavage, second Ni-NTA, SEC); not shown: His6, N-terminal, cleaved
B2: GDAP1Δ303‐358 H123R (domain or fragment, human, UniProt Q8TB36 1-302, looked up)
chain: B1 chain with W120R, H123R
notes: GDAP1, human; printed as GDAP1Δ303-358 (residues 303-358 deleted) with the Finnish founder CMT2K mutation H123R; Disease mutation that occurs in patients; also called H123R GDAP1; GDAP1∆303‐358 H123R; source: E. coli BL21(DE3), purified (Ni-NTA, TEV cleavage, second Ni-NTA, SEC); not shown: His6, N-terminal, cleaved
B3: GDAP1Δ295‐358 wild type (domain or fragment, human, UniProt Q8TB36 1-294, looked up)
chain: MAERQEEQRGSPPLRAEGKADAEVKLILYHWTHSFSSQKVRLVIAEKALKCEEHDVSLPLSEHNEPWFMRLNSTGEVPVLIHGENIICEATQIIDYLEQTFLDERTPRLMPDKESMYYPRVQHYRELLDSLPMDAYTHGCILHPELTVDSMIPAYATTRIRSQIGNTESELKKLAEENPDLQEAYIAKQKRLKSKLLDHDNVKYLKKILDELEKVLDQVETELQRRNEETPEEGQQPWLCGESFTLADVSLAVTLHRLKFLGFARRNWGNGKRPNLETYYERVLKRKTFNKVLG
notes: GDAP1, human; printed as GDAP1Δ295-358 (residues 295-358 deleted); also called wtGDAP1Δ295‐358; GDAPΔ295‐358; source: E. coli BL21(DE3), purified (Ni-NTA, TEV cleavage, second Ni-NTA, SEC on Superdex 200); not shown: His6, N-terminal, cleaved

What was measured:
[1] = molecular target: the molecule itself; assay: SEC-SAXS; 50 µL at 8.5-10 mg/mL on a BioSEC3-300 column, 25 mM HEPES pH 7.5, 300 mM NaCl, +15 °C; monomer to dimer
[2] = molecular target: the molecule itself; assay: crystal structure; wild-type GDAP1Δ295-358, new crystal form, +8 °C, 200 mM NH4 formate, 25% PEG3350, 8.64 mg/mL protein

| Protein | stoichiometry N [1] | binding result [2] |
| --- | --- | --- |
| B1 | 2 |  |
| B2 | 2 |  |
| B3 |  | binds |
